Assay results taken from patent US20190359687A1 (Bayer, published 2019).
Values belong to the binder of their own block, whether it stands above or below them.

Tests used:
[1] = molecular target: T1, Cynomolgus monkey glycophorin A on Cynomolgus monkey red blood cells (Cynomolgus monkey); test: partition to Cyno RBC, human HemA plasma, 1 min;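 further: FVIII fusion spiked at 1 IU/mL into RBC suspension at whole-blood density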
T1 construct: whole, on cells; also called Cyno GPA; Cyno RBC

[2] = molecular target: T1, Cynomolgus monkey glycophorin A on …; test: partition to Cyno RBC, human HemA plasma, 5 min;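 further: FVIII fusion spiked at 1 IU/mL into RBC suspension at whole-blood density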
[3] = molecular target: T1, Cynomolgus monkey glycophorin A on …; test: partition to Cyno RBC, human HemA plasma, 15 min;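 further: FVIII fusion spiked at 1 IU/mL into RBC suspension at whole-blood density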
Method: (§1) To evaluate partition to cynomolgus monkey or human red blood cells, whole blood was draw from Cynomolgus monkey or normal human volunteers in to anticoagulant with 4% sodium citrate (Sigma, St Louis, Mo.). The red blood cells were purified by layering the whole blood on to ficoll followed by low speed centrifugation. The supernatant containing plasma, platelets and white blood cells was discarded and the red blood cell pellet was resuspended in 10 pellet volumes of PBS (50 mM Phosphate buffer, pH7.4, 150 mM NaCl). The red blood cells were then pelleted by slow speed centrifugation and the red blood cells re-suspended in 10 volumes of PBS. This washing step was repeated 4 more times and the red blood cells finally resuspended in a volume of plasma from Hemophilia patients with less than 1% of normal levels of FVIII (GeorgeKing Bio-Medical, Overland Park, Kans.) to generate a total volume equal to the initial blood volume such that the RBC density was equal to that of normal whole blood. BDD and RBC targeted FVIII molecules were then spiked into RBC suspension in HemA plasma at 1 IU/mL, and incubated at room temperature for 2-3 hours with gentle rotation. […] An additional control was performed in which BDD or RBC targeted FVIII molecules were added at 11U/ml into the same human hemophilia A plasma and incubated for 5 minutes and 180 mins. These samples were used to determine the input FVIII activity in the presence of plasma which was used to calculate the percentage of the molecule that was bound to RBC. All plasma samples were then assayed together for FVIII activity using the Coatest SP assay (DiaPharma, Columbus, Ohio). The assay was performed following the manufacturer's instructions in a 96-well plate format. […] The plate was incubated at 37° C. for 10 minutes with shaking between each reagent addition.

[4] = molecular target: T1, Cynomolgus monkey glycophorin A on …; test: partition to Cyno RBC, human HemA plasma, 30 min;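 further: FVIII fusion spiked at 1 IU/mL into RBC suspension at whole-blood density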
Method: as §1

[5] = molecular target: T1, Cynomolgus monkey glycophorin A on …; test: partition to Cyno RBC, human HemA plasma, 60 min;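 further: FVIII fusion spiked at 1 IU/mL into RBC suspension at whole-blood density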
[6] = molecular target: T1, Cynomolgus monkey glycophorin A on …; test: partition to Cyno RBC, human HemA plasma, 120 min;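 further: FVIII fusion spiked at 1 IU/mL into RBC suspension at whole-blood density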
Method: as §1

[7] = molecular target: T2, human glycophorin A on human red blood cells (human, UniProt P02724 20-150); test: partition to human RBC, vWF deficient plasma, 1 min
T2 construct: whole, on cells; also called human GPA; huGPA
T2 sequence (looked up): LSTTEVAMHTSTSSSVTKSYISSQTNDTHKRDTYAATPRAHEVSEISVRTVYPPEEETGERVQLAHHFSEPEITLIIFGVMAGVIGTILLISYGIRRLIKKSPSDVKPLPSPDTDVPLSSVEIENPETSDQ

[8] = molecular target: T2, human glycophorin A on human red blood …; test: partition to human RBC, vWF deficient plasma, 5 min
[9] = molecular target: T2, human glycophorin A on human red blood …; test: partition to human RBC, vWF deficient plasma, 15 min
[10] = molecular target: T2, human glycophorin A on human red blood …; test: partition to human RBC, vWF deficient plasma, 30 min
[11] = molecular target: T2, human glycophorin A on human red blood …; test: partition to human RBC, vWF deficient plasma, 60 min
[12] = molecular target: T2, human glycophorin A on human red blood …; test: partition to human RBC, vWF deficient plasma, 120 min
[13] = molecular target: T3, glycophorin A peptide GP5 (human, biotin at the N-terminus); test: Octet, GP5 peptide on the probe, fusion protein in solution, 1:1 fit
T3 construct: Residues 42 to 61 of the human glycophorin A extracellular domain
T3 peptide: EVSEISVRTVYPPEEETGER

% bound to Cyno RBC [1]: 40.6%
% bound to Cyno RBC [2]: 63%
% bound to Cyno RBC [3]: 72.1%
% bound to Cyno RBC [4]: 74.2%
% bound to Cyno RBC [5]: 80.2%
% bound to Cyno RBC [6]: 81.8%
percentage bound to human RBC [7]: 76.2%
percentage bound to human RBC [8]: 85.3%
percentage bound to human RBC [9]: 87%
percentage bound to human RBC [10]: 87%
percentage bound to human RBC [11]: 88.7%
percentage bound to human RBC [12]: 86.3%
B1: TPP-9711 FVIII-scFv fusion protein (other)
chain: ATRRYYLGAVELSWDYMQSDLGELPVDARFPPRVPKSFPFNTSVVYKKTLFVEFTDHLFNIAKPRPPWMGLLGPTIQAEVYDTVVITLKNMASHPVSLHAVGVSYWKASEGAEYDDQTSQREKEDDKVFPGGSHTYVWQVLKENGPMASDPLCLTYSYLSHVDLVKDLNSGLIGALLVCREGSLAKEKTQTLHKFILLFAVFDEGKSWHSETKNSLMQDRDAASARAWPKMHTVNGYVNRSLPGLIGCHRKSVYWHVIGMGTTPEVHSIFLEGHTFLVRNHRQASLEISPITFLTAQTLLMDLGQFLLFCHISSHQHDGMEAYVKVDSCPEEPQLRMKNNEEAEDYDDDLTDSEMDVVRFDDDNSPSFIQIRSVAKKHPKTWVHYIAAEEEDWDYAPLVLAPDDRSYKSQYLNNGPQRIGRKYKKVRFMAYTDETFKTREAIQHESGILGPLLYGEVGDTLLIIFKNQASRPYNIYPHGITDVRPLYSRRLPKGVKHLKDFPILPGEIFKYKWTVTVEDGPTKSDPRCLTRYYSSFVNMERDLASGLIGPLLICYKESVDQRGNQIMSDKRNVILFSVFDENRSWYLTENIQRFLPNPAGVQLEDPEFQASNIMHSINGYVFDSLQLSVCLHEVAYWYILSIGAQTDFLSVFFSGYTFKHKMVYEDTLTLFPFSGETVFMSMENPGLWILGCHNSDFRNRGMTALLKVSSCDKNTGDYYEDSYEDISAYLLSKNNAIEPRSFSQNGGGGSTGGTGGSSGGGTGSGGGGTGGSGGTDIQLTQSPSFLSASVGDRVTITCRASSSVRYIYWFQQKPGKAPKLLIYATSFRQSGVPSRFSGSGSGTEYTLTISSLQPEDFATYYCHQRNSFPYTFGQGTKLEIKGGGGSGGGGSGGGGSGGGGSEVQLVQSGAEVKKPGASVKVSCKASGYTFTTYAIHWVRQAPGQGLEWMGYINPSSGYTRYNPKFKGRVTMTRDKSTSTAYMELRSLRSDDTAVYYCWTGTRDYWGQGTTVTVSSGGGGDENQSPRSFQKKTRHYFIAAVERLWDYGMSSSPHVLRNRAQSGSVPQFKKVVFQEFTDGSFTQPLYRGELNEHLGLLGPYIRAEVEDNIMVTFRNQASRPYSFYSSLISYEEDQRQGAEPRKNFVKPNETKTYFWKVQHHMAPTKDEFDCKAWAYFSDVDLEKDVHSGLIGPLLVCHTNTLNPAHGRQVTVQEFALFFTIFDETKSWYFTENMERNCRAPCNIQMEDPTFKENYRFHAINGYIMDTLPGLVMAQDQRIRWYLLSMGSNENIHSIHFSGHVFTVRKKEEYKMALYNLYPGVFETVEMLPSKAGIWRVECLIGEHLHAGMSTLFLVYSNKCQTPLGMASGHIRDFQITASGQYGQWAPKLARLHYSGSINAWSTKEPFSWIKVDLLAPMIIHGIKTQGARQKFSSLYISQFIIMYSLDGKKWQTYRGNSTGTLMVFFGNVDSSGIKHNIFNPPIIARYIRLHPTHYSIRSTLRMELMGCDLNSCSMPLGMESKAISDAQITASSYFTNMFATWSPSKARLHLQGRSNAWRPQVNNPKEWLQVDFQKTMKVTGVTTQGVKSLLTSMYVKEFLISSSQDGHQWTLFFQNGKVKVFQGNQDSFTPVVNSLDPPLLTRYLRIHPQSWVHQIALRMEVLGCEAQDLY
notes: The entry is the mature protein; also called PPB 7816

% bound to Cyno RBC [1]: 0%
% bound to Cyno RBC [2]: -21.9%
% bound to Cyno RBC [3]: -7.8%
% bound to Cyno RBC [4]: -8.7%
% bound to Cyno RBC [5]: -19.1%
% bound to Cyno RBC [6]: 2.9%
percentage bound to human RBC [7]: 76.5%
percentage bound to human RBC [8]: 92.5%
percentage bound to human RBC [9]: 95.2%
percentage bound to human RBC [10]: 95.7%
percentage bound to human RBC [11]: 95.8%
percentage bound to human RBC [12]: 95.7%
Kd [13]: 4 nM
koff [13]: 0.00329 s⁻¹
kon [13]: 823000 M⁻¹ s⁻¹
B2: TPP-8798 FVIII-scFv fusion protein (other)
chain: DIQLTQSPSFLSASVGDRVTITCRASSSVRYIYWFQQKPGKAPKLLIYATSFRQSGVPSRFSGSGSGTEYTLTISSLQPEDFATYYCHQRNSFPYTFGQGTKLEIKGGGGSGGGGSGGGGSGGGGSEVQLVQSGAEVKKPGASVKVSCKASGYTFTTYAIHWVRQAPGQGLEWMGYINPSSGYTRYNPKFKGRVTMTRDKSTSTAYMELRSLRSDDTAVYYCWTGTRDYWGQGTTVTVSSGGGSGGGGSGLVPRGSGGGSGGGGSGATRRYYLGAVELSWDYMQSDLGELPVDARFPPRVPKSFPFNTSVVYKKTLFVEFTDHLFNIAKPRPPWMGLLGPTIQAEVYDTVVITLKNMASHPVSLHAVGVSYWKASEGAEYDDQTSQREKEDDKVFPGGSHTYVWQVLKENGPMASDPLCLTYSYLSHVDLVKDLNSGLIGALLVCREGSLAKEKTQTLHKFILLFAVFDEGKSWHSETKNSLMQDRDAASARAWPKMHTVNGYVNRSLPGLIGCHRKSVYWHVIGMGTTPEVHSIFLEGHTFLVRNHRQASLEISPITFLTAQTLLMDLGQFLLFCHISSHQHDGMEAYVKVDSCPEEPQLRMKNNEEAEDYDDDLTDSEMDVVRFDDDNSPSFIQIRSVAKKHPKTWVHYIAAEEEDWDYAPLVLAPDDRSYKSQYLNNGPQRIGRKYKKVRFMAYTDETFKTREAIQHESGILGPLLYGEVGDTLLIIFKNQASRPYNIYPHGITDVRPLYSRRLPKGVKHLKDFPILPGEIFKYKWTVTVEDGPTKSDPRCLTRYYSSFVNMERDLASGLIGPLLICYKESVDQRGNQIMSDKRNVILFSVFDENRSWYLTENIQRFLPNPAGVQLEDPEFQASNIMHSINGYVFDSLQLSVCLHEVAYWYILSIGAQTDFLSVFFSGYTFKHKMVYEDTLTLFPFSGETVFMSMENPGLWILGCHNSDFRNRGMTALLKVSSCDKNTGDYYEDSYEDISAYLLSKNNAIEPRSFSQNPPVLKRHQREITRTTLQSDQEEIDYDDTISVEMKKEDFDIYDEDENQSPRSFQKKTRHYFIAAVERLWDYGMSSSPHVLRNRAQSGSVPQFKKVVFQEFTDGSFTQPLYRGELNEHLGLLGPYIRAEVEDNIMVTFRNQASRPYSFYSSLISYEEDQRQGAEPRKNFVKPNETKTYFWKVQHHMAPTKDEFDCKAWAYFSDVDLEKDVHSGLIGPLLVCHTNTLNPAHGRQVTVQEFALFFTIFDETKSWYFTENMERNCRAPCNIQMEDPTFKENYRFHAINGYIMDTLPGLVMAQDQRIRWYLLSMGSNENIHSIHFSGHVFTVRKKEEYKMALYNLYPGVFETVEMLPSKAGIWRVECLIGEHLHAGMSTLFLVYSNKCQTPLGMASGHIRDFQITASGQYGQWAPKLARLHYSGSINAWSTKEPFSWIKVDLLAPMIIHGIKTQGARQKFSSLYISQFIIMYSLDGKKWQTYRGNSTGTLMVFFGNVDSSGIKHNIFNPPIIARYIRLHPTHYSIRSTLRMELMGCDLNSCSMPLGMESKAISDAQITASSYFTNMFATWSPSKARLHLQGRSNAWRPQVNNPKEWLQVDFQKTMKVTGVTTQGVKSLLTSMYVKEFLISSSQDGHQWTLFFQNGKVKVFQGNQDSFTPVVNSLDPPLLTRYLRIHPQSWVHQIALRMEVLGCEAQDLY
notes: The entry is the mature protein; mostly a 2 chain molecule; also called BDD-N scFv; PPB 6705
